Measurements: publication PMC10873202, “Structural mechanisms of autoinhibition and substrate recognition by the ubiquitin ligase HACE1” (Nature Structural & Molecular Biology, 2024)
Substitutions are numbered along the chain they refer to. Each block holds one binder with its values, some of them ahead of it.

Tests used:
[1] = target: T1, HACE1 full length, wild type (HACE1 FL) (human), Q8IYU2; assay: SEC; analytical SEC, 20 μM HACE1, 50 mM HEPES (pH 8.0), 150 mM NaCl, 1 mM DTT, Superdex 200 Increase 3.2/300, 4 °C; settings: remark: other sources report otherwise
T1 chain: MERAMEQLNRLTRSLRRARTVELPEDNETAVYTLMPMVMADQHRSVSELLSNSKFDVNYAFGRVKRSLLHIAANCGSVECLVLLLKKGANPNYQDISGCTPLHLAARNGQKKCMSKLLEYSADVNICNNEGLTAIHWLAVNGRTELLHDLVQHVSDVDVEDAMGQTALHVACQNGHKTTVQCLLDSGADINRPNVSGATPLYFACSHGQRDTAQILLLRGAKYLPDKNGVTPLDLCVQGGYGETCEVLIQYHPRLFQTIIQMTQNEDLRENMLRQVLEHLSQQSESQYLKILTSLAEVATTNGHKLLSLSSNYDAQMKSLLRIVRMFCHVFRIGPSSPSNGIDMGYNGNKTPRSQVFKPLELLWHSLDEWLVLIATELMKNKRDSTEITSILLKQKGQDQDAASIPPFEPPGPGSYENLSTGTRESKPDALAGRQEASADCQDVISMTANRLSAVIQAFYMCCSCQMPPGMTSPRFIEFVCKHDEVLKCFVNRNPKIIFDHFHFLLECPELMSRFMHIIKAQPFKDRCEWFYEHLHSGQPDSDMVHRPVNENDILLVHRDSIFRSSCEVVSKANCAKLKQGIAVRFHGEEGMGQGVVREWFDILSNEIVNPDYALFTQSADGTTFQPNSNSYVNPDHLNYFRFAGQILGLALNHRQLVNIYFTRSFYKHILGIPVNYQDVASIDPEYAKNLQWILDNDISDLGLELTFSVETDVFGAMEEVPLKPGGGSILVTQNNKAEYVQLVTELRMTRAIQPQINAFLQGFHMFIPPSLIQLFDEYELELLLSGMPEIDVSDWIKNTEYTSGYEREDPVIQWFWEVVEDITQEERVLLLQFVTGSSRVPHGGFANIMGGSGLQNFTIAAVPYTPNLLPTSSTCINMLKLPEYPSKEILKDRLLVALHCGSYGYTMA

[2] = target: T1, HACE1 full length, wild type (HACE1 FL) …; assay: mass photometry; HACE1 samples at 20–40 nM in 25 mM HEPES (pH 8.0), 150 mM NaCl; One^MP mass photometer, BSA calibration; settings: remark: other sources report otherwise
[3] = target: the molecule itself; assay: as above

stoichiometry N [1]: 2
stoichiometry N [2]: 2
B1: HACE1 full length, wild type (HACE1 FL), Q8IYU2 1-909 (enzyme)
chain: T1 chain

B2: HACE1 L15A (enzyme, human, UniProt Q8IYU2 1-909, looked up)
chain: T1 chain with L15A
notes: HACE1, human, full-length variant; also called Leu15 substituted with alanine; source: E. coli BL21(DE3), purified (IMAC, tag removal, SEC); not shown: His6 (pSKB2) or His10-tandem Z (pN-HZ10-ZZ(3)), N-terminal, cleaved
binding result [3]: binds

B3: HACE1 L704D (enzyme, human, UniProt Q8IYU2 1-909, looked up)
chain: T1 chain with L704D
notes: HACE1, human, full-length variant (HECT N-lobe); source: E. coli BL21(DE3), purified (IMAC, tag removal, SEC); not shown: His6 (pSKB2) or His10-tandem Z (pN-HZ10-ZZ(3)), N-terminal, cleaved
binding result [3]: binds

B4: HACE1 T12E (enzyme, human, UniProt Q8IYU2 1-909, looked up)
chain: T1 chain with T12E
notes: HACE1, human, control phospho-mimetic variant compared with the wild-type dimer ('FL'); source: E. coli BL21(DE3), purified (IMAC, tag removal, SEC); not shown: His6 (pSKB2) or His10-tandem Z (pN-HZ10-ZZ(3)), N-terminal, cleaved
binding result [3]: binds

B5: HACE1 L11A (enzyme, human, UniProt Q8IYU2 1-909, looked up)
chain: T1 chain with L11A
notes: HACE1, human, full-length variant; also called Leu11 substituted with alanine; source: E. coli BL21(DE3), purified (IMAC, tag removal, SEC); not shown: His6 (pSKB2) or His10-tandem Z (pN-HZ10-ZZ(3)), N-terminal, cleaved
binding result [3]: binds

B6: HACE1 L8A (enzyme, human, UniProt Q8IYU2 1-909, looked up)
chain: T1 chain with L8A
notes: HACE1, human, full-length variant; also called Leu8 substituted with alanine; source: E. coli BL21(DE3), purified (IMAC, tag removal, SEC); not shown: His6 (pSKB2) or His10-tandem Z (pN-HZ10-ZZ(3)), N-terminal, cleaved
binding result [3]: binds

B7: HACE1 L8D (enzyme, human, UniProt Q8IYU2 1-909, looked up)
chain: T1 chain with L8D
notes: HACE1, human, full-length variant; source: E. coli BL21(DE3), purified (IMAC, tag removal, SEC); not shown: His6 (pSKB2) or His10-tandem Z (pN-HZ10-ZZ(3)), N-terminal, cleaved
binding result [3]: binds
